The text below walks through data of US20150037328A1 (Pfizer, published 2015).

For assay [1], the target named is T1, human CXCR4 (chemokine (C-X-C motif) receptor 4) (human, UniProt P61073 1-352). In words: cell-based or functional assay.
Assay [2] addresses T1, human CXCR4 (chemokine (C-X-C motif) …). In words: cell-based or functional assay. The source holds these as a separate data set.
The target is the same in assay [3]. In words: flow cytometry on Raji cells, dilution series 0.007-267 nM. The protocol: (§1) Binding was detected by 2nd Ab (Alexa Fluor 647-conjugated goat anti-human IgG, Fcgamma specific, Jackson ImmunoResearch Laboratories, West Grove Pa.) and acquired with LSRFortessa cell analyzer (BD Biosciences, San Jose Calif.). Curve fit and EC50 calculation was performed with Prism software (GraphPad Software, La Jolla Calif.). Tables 9A and 9B and FIGS. 3A and 3B.
(In general: A flow cytometer gives signals particle by particle.)

Assay [4] shares this target. The assay can be described thus: flow cytometry on HPB-ALL cells, dilution series 0.007-267 nM. The protocol: as §1
Assay [5] concerns the target T2, cynomolgus CXCR4 (cynomolgus, UniProt Q28474 1-352).
T2 construct: whole, on cells; On Cyno-CXCR4 transfected CHO cells and on HSC-F (cynomolgus T cell line); also called Cyno-CXCR4; CynoCXCR4
The assay can be described thus: flow cytometry on Cyno-CXCR4 transfected CHO cells, dilution series 0.007-267 nM. The protocol: as §1

Assay [6] addresses T2, cynomolgus CXCR4. In words: flow cytometry on HSC-F (cynomolgus T cell line) cells, dilution series 0.007-267 nM. The protocol:
as §1

In assay [7] the target is T1, human CXCR4 (chemokine (C-X-C motif) …). The assay can be described thus: flow cytometry on HPB-ALL cells, Fab at 2.5 µg/ml.
For assay [8] the target is unchanged. In words: flow cytometry on HPB-ALL cells, Fab at 0.25 µg/ml.
The target is the same in assay [9]. The assay can be described thus: flow cytometry on HPB-ALL cells, Fab at 0.25 µg/mL. The protocol:
Binding of CXCR4 Fabs to CXCR4-expressing cells were measured by flow cytometry on HPB-ALL (Human T cell leukemia) cells. 150,000 HPB-ALL cells were resuspended in 100 uL FACS buffer (1×PBS+0.5% BSA) on 96 well plates. […] After removing the primary antibodies the cells were washed twice with FACS buffer and then resuspended in FACS buffer and 2 uL (3 ug) of 2nd Ab (Alexa Fluor 647-conjugated goat anti-human IgG, F(ab′)2 specific, Jackson ImmunoResearch Laboratories, West Grove Pa.) was then added to each well. The plates were incubated at 4 degree for another 30 min. Fluorescence signals were acquired by cell analyzer LSRII (BD Biosciences, San Jose Calif.).

For assay [10], the target named is T3, human CXCR4-enriched lipoparticles (LEV101, Integral Molecular) (human, UniProt P61073 1-352).
T3 construct: Bought reagent; CXCR4 held in lipoparticles captured by biotinylated WGA on an SA chip; also called Lipoparticles containing CXCR4 proteins
T3 sequence (P61073 whole entry): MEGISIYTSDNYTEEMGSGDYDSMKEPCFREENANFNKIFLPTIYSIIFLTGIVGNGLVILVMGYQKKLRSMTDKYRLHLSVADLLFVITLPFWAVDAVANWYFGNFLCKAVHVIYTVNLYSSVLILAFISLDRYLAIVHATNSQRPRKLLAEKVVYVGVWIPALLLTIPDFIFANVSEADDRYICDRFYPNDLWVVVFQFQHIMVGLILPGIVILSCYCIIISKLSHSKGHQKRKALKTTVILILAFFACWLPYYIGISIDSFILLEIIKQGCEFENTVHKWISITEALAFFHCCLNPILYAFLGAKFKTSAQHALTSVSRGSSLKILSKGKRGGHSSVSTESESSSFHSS
The assay can be described thus: biosensor kinetic titration, Fab over captured human CXCR4 lipoparticles. As to the method:
The binding affinity of each Fab was determined using human CXCR4-enriched lipoparticles (LEV101, Integral Molecular, Philadelphia Pa.). Biotinylated WGA (Sigma Aldrich, St. Louis Mo.)) can be coated on the SA chip to facilitate capturing lipoparticles containing CXCR4 proteins. […] J. Mol. Recognit.

One may read the EC50 as the concentration at which the effect is half-maximal. Lower therefore signals greater potency. One may read the Kd as the concentration at which binding is half-saturated. Read a high Kd as lower affinity. What is called koff is the rate constant with which the complex falls apart. What is called kon is a measure of how fast the partners come together. In general, t½ refers to the time in which the quantity being followed falls by half. A higher t½ goes with slow loss.

Changes are numbered by the printed parent chain. Names and notes keep the numbering of the source.

T1 sequence (P61073 whole entry): as above
T2 sequence (Q28474 whole entry): as the sequence (P61073 whole entry) above, with M24I, N35H, K38R, R146K, N176S counted along it

B1: humanized anti-CXCR4 antibody h3G10.1.91.A58B (antibody, V domains shown)
VH: EVQLVESGGGLVQPGGSLRLSCAASGFTFSDYYMSWVRQAPGKGLEWVGFIRHKANFETTEYSTSVKGRFTISRDDSKNSLYLQMNSLKTEDTAVYYCARDLPGFAYWGQGTLVTVSS
VL: DIVMTQSPDSLAVSLGERATINCKSSQSLFNSHTRKNYLAWYQQKPGQPPKLLIYWASARGSGVPDRFSGSGSGTDFTLTISSLQAEDVAVYYCKQSFNLRTFGGGTKVEIK
notes: Whole antibody (detected with an anti-human IgG Fc gamma specific second antibody); also called h3G10.1.91 VH / h3G10.A58B VL; CXCR4 Ab h3G10.1.91.A58B
Consider B1, for which the “IC50 (M), Calcium Flux Activity (average of 3 experiments)” value (“IC50 (M), Calcium Flux Activity” below) in [1] was 2.17e-09 M. In addition, the “EC50 (M), cAMP assay, CHO-K1 cells transfected with human CXCR4” value (“EC50 (M), cAMP assay” for short) in assay [2] came out at 3.92e-08 M. The half-maximal effective concentration (EC50) in [3] was 3.05 nM; in assay [4] it was 0.27 nM; with cynomolgus CXCR4 [5], 0.16 nM; in the assay with cynomolgus CXCR4 [6], 2.58 nM.

B2: humanized anti-CXCR4 antibody h3G10 (antibody, V domains shown)
VH: B1 VH with F57G, E58Y
VL: B1 VL with H33R, G61E
Consider B2, for which, in assay [1], the “IC50 (M), Calcium Flux Activity” value was 2e-09 M.

B3: humanized anti-CXCR4 antibody h3G10.1.91.A58A (antibody, V domains shown)
VH: B1 VH
VL: B1 VL with N99R
Turning to B3, the “IC50 (M), Calcium Flux Activity” value in assay [1] is 2.35e-09 M.

B4: humanized anti-CXCR4 antibody h3G10.A57 (antibody, V domains shown)
VH: B1 VH with E58Y
VL: B1 VL with H33R, G61E
With B4, the “IC50 (M), Calcium Flux Activity” value in assay [1] stood at 1.69e-09 M.

B5: humanized anti-CXCR4 antibody h3G10.A57.A58A (antibody, V domains shown)
VH: B1 VH with E58Y
VL: B1 VL with N99R
Consider B5, for which the “IC50 (M), Calcium Flux Activity” value in [1] came out at 1.31e-09 M. For the same molecule, the “EC50 (M), cAMP assay” value in [2] is 2.43e-08 M.

B6: humanized anti-CXCR4 antibody h3G10.2.37.2.72 (antibody, V domains shown)
VH: B1 VH with E58Y, T60R
VL: B1 VL with H33R, G61E, N99R
On to B6, for which the “IC50 (M), Calcium Flux Activity” value in assay [1] worked out at 1.36e-09 M. For the same molecule, the “EC50 (M), cAMP assay” value in [2] was found to be 3.41e-08 M.

B7: h3G10.A57 VH / h3G10 VL Fab (Fab, V domains shown)
VH: B1 VH with E58Y
VL: B1 VL with H33R, G61E
notes: Tested as Fab; also called h3G10.A57 VH / h3G10 L
Regarding B7, the MFI in [7] was found to be 4060. In assay [8], the MFI was 868. In assay [9], this molecule yielded an MFI of 1340. In assay [10], the Kd was 1.22 nM, the koff was 0.00143 s⁻¹, the on-rate (kon) was 1.17e+06 M⁻¹ s⁻¹ and the “t½” value turned out to be 8.08 min.
